Data reported in the supplement of paper PMC9112550, “Optimization of the antimicrobial peptide Bac7 by deep mutational scanning” (BMC Biology, 2022).

These sequences were tested on Escherichia coli TOP10 (assay: shrunken log2 fold change of peptide-encoding DNA abundance (4.5 h post-induction vs induction); higher = less antimicrobial activity (less host growth inhibition)). Conditions: time post-induction: 4.5 h; library: site-saturation at positions 5, 18, 19, 20.
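Further: peptides expressed intracellularly from a pBAD plasmid library in pooled LB shake-flask culture, induced with 0.3% L-arabinose, DNA abundance read by NGS, three biological replicates, DESeq2 with apeglm shrinkage.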

| Sequence | shrunken log2 fold change |
| --- | --- |
| RRIRARPPRLPRPRPRPQRWPRP | 0.172 |
| RRIRKRPPRLPRPRPRPGTSPRP | 0.0376 |
| RRIRARPPRLPRPRPRPGREPRP | 0.388 |
| RRIRTRPPRLPRPRPRPEMNPRP | 0.00876 |
| RRIRERPPRLPRPRPRPDCFPRP | 0.316 |
| RRIRQRPPRLPRPRPRPITHPRP | -0.102 |
| RRIRMRPPRLPRPRPRPMHPPRP | 0.0065 |
| RRIRCRPPRLPRPRPRPYHQPRP | -0.819 |
| RRIRHRPPRLPRPRPRPADQPRP | 0.0188 |
| RRIRTRPPRLPRPRPRPIKKPRP | -0.0742 |
| RRIRMRPPRLPRPRPRPPPMPRP | 1.54 |
| RRIRIRPPRLPRPRPRPWCAPRP | -0.377 |
| RRIRLRPPRLPRPRPRPLGLPRP | -0.253 |
| RRIRPRPPRLPRPRPRPYQSPRP | -0.194 |
| RRIRCRPPRLPRPRPRPTNQPRP | -0.427 |
| RRIRERPPRLPRPRPRPNCPPRP | -0.409 |
| RRIRARPPRLPRPRPRPQCAPRP | 0.216 |
| RRIRLRPPRLPRPRPRPFYFPRP | -0.432 |
| RRIRIRPPRLPRPRPRPDYVPRP | 0.012 |
| RRIRPRPPRLPRPRPRPFTVPRP | 0.0237 |
| RRIRIRPPRLPRPRPRPIPKPRP | -0.0993 |
| RRIRVRPPRLPRPRPRPKKTPRP | -0.0604 |
| RRIRMRPPRLPRPRPRPSEGPRP | -0.00192 |
| RRIRFRPPRLPRPRPRPNGSPRP | 0.0396 |
| RRIRGRPPRLPRPRPRPWWIPRP | 0.0656 |

| Sequence | shrunken log2 fold change |
| --- | --- |
| RRIRERPPRLPRPRPRPKLKPRP | -0.387 |
| RRIRMRPPRLPRPRPRPACKPRP | 0.484 |
| RRIRHRPPRLPRPRPRPDANPRP | 0.152 |
| RRIRFRPPRLPRPRPRPEPFPRP | 0.108 |
| RRIRARPPRLPRPRPRPMIVPRP | -0.262 |
| RRIRGRPPRLPRPRPRPHNLPRP | -0.262 |
| RRIRRRPPRLPRPRPRPKRFPRP | 0.305 |
| RRIRRRPPRLPRPRPRPTWCPRP | 0.0593 |
| RRIRDRPPRLPRPRPRPNVWPRP | 0.234 |
| RRIRGRPPRLPRPRPRPMMWPRP | 0.412 |
| RRIRDRPPRLPRPRPRPTHSPRP | 0.177 |
| RRIRYRPPRLPRPRPRPRHLPRP | -0.142 |
| RRIRGRPPRLPRPRPRPEHEPRP | 0.176 |
| RRIRTRPPRLPRPRPRPHQYPRP | -0.259 |
| RRIRGRPPRLPRPRPRPYALPRP | 0.0375 |
| RRIRKRPPRLPRPRPRPMVRPRP | 0.00145 |
| RRIRDRPPRLPRPRPRPFKGPRP | -0.617 |
| RRIRLRPPRLPRPRPRPHPTPRP | -0.094 |
| RRIRIRPPRLPRPRPRPVADPRP | 0.0861 |
| RRIRKRPPRLPRPRPRPHPVPRP | 0.185 |
| RRIRCRPPRLPRPRPRPNKRPRP | -0.42 |
| RRIRFRPPRLPRPRPRPPPAPRP | 1.49 |
| RRIRNRPPRLPRPRPRPMSVPRP | 0.0774 |
| RRIRQRPPRLPRPRPRPSMWPRP | 0.0422 |
| RRIRGRPPRLPRPRPRPLTRPRP | 0.803 |

| Sequence | shrunken log2 fold change |
| --- | --- |
| RRIRCRPPRLPRPRPRPWAIPRP | -0.0169 |
| RRIRPRPPRLPRPRPRPIAIPRP | 0.247 |
| RRIRVRPPRLPRPRPRPSVLPRP | 0.226 |
| RRIRMRPPRLPRPRPRPKFKPRP | -0.0108 |
| RRIRVRPPRLPRPRPRPPKPPRP | 0.107 |
| RRIRVRPPRLPRPRPRPRMVPRP | -0.0168 |
| RRIRVRPPRLPRPRPRPKTPPRP | 0.334 |
| RRIRVRPPRLPRPRPRPWVFPRP | 0.284 |
| RRIRVRPPRLPRPRPRPVEAPRP | 0.0669 |
| RRIRERPPRLPRPRPRPAENPRP | -0.27 |
| RRIRRRPPRLPRPRPRPHKHPRP | -0.165 |
| RRIRDRPPRLPRPRPRPYMDPRP | -0.393 |
| RRIRARPPRLPRPRPRPCTMPRP | -0.207 |
| RRIRDRPPRLPRPRPRPAREPRP | 1.06 |
| RRIRMRPPRLPRPRPRPGLQPRP | 4.5 |
| RRIRWRPPRLPRPRPRPEAGPRP | 0.877 |
| RRIRRRPPRLPRPRPRPDEIPRP | 0.116 |
| RRIRLRPPRLPRPRPRPNRKPRP | -0.223 |
| RRIRKRPPRLPRPRPRPSHYPRP | -0.248 |
| RRIRKRPPRLPRPRPRPGSTPRP | 0.131 |
| RRIRVRPPRLPRPRPRPYESPRP | -0.0252 |
| RRIRWRPPRLPRPRPRPIMTPRP | -0.00859 |
| RRIRIRPPRLPRPRPRPSDMPRP | -0.309 |
| RRIRFRPPRLPRPRPRPWPNPRP | -0.086 |
| RRIRRRPPRLPRPRPRPYVMPRP | -0.882 |

| Sequence | shrunken log2 fold change |
| --- | --- |
| RRIRFRPPRLPRPRPRPRPRPRP | 1.65 |
| RRIRKRPPRLPRPRPRPVRHPRP | 0.0899 |
| RRIRIRPPRLPRPRPRPMSAPRP | -0.205 |
| RRIRLRPPRLPRPRPRPRDQPRP | 0.0949 |
| RRIRRRPPRLPRPRPRPVTWPRP | 0.182 |
| RRIRNRPPRLPRPRPRPTFDPRP | 0.0109 |
| RRIRNRPPRLPRPRPRPLPTPRP | -0.0778 |
| RRIRCRPPRLPRPRPRPHNFPRP | -1.01 |
| RRIRYRPPRLPRPRPRPFVAPRP | -0.696 |
| RRIRCRPPRLPRPRPRPNKKPRP | 0.0294 |
| RRIRMRPPRLPRPRPRPIDRPRP | -0.0322 |
| RRIRKRPPRLPRPRPRPWTEPRP | -0.172 |
| RRIRQRPPRLPRPRPRPKLMPRP | -0.082 |
| RRIRCRPPRLPRPRPRPTRTPRP | 0.406 |
| RRIRSRPPRLPRPRPRPSELPRP | -0.215 |
| RRIRFRPPRLPRPRPRPWMCPRP | -0.0872 |
| RRIRWRPPRLPRPRPRPDPQPRP | -0.00387 |
| RRIRERPPRLPRPRPRPDFWPRP | 0.214 |
| RRIRKRPPRLPRPRPRPCEVPRP | 0.0441 |
| RRIRTRPPRLPRPRPRPSQEPRP | -0.184 |
| RRIRMRPPRLPRPRPRPHLNPRP | 0.176 |
| RRIRDRPPRLPRPRPRPYIFPRP | 3.58 |
| RRIRVRPPRLPRPRPRPHFLPRP | 0.187 |
| RRIRNRPPRLPRPRPRPYLVPRP | -0.161 |
| RRIRRRPPRLPRPRPRPGWWPRP | 0.478 |

| Sequence | shrunken log2 fold change |
| --- | --- |
| RRIRHRPPRLPRPRPRPQKVPRP | -0.0567 |
| RRIRDRPPRLPRPRPRPHHRPRP | -0.277 |
| RRIRLRPPRLPRPRPRPYVMPRP | -0.194 |
| RRIRVRPPRLPRPRPRPMITPRP | 0.104 |
| RRIRIRPPRLPRPRPRPKNNPRP | -0.878 |
| RRIRSRPPRLPRPRPRPHMKPRP | 0.427 |
| RRIRSRPPRLPRPRPRPEPFPRP | 0.621 |
| RRIRYRPPRLPRPRPRPSSDPRP | -0.218 |
| RRIRDRPPRLPRPRPRPMWAPRP | -0.0235 |
| RRIRYRPPRLPRPRPRPERNPRP | 0.00677 |
| RRIRQRPPRLPRPRPRPPFFPRP | 0.249 |
| RRIRQRPPRLPRPRPRPHVPPRP | -0.0247 |
| RRIRLRPPRLPRPRPRPQTSPRP | -0.106 |
| RRIRCRPPRLPRPRPRPVCYPRP | -0.269 |
| RRIRIRPPRLPRPRPRPLYFPRP | -0.961 |
| RRIRMRPPRLPRPRPRPERMPRP | 1.35 |
| RRIRNRPPRLPRPRPRPHLTPRP | -0.0934 |
| RRIRCRPPRLPRPRPRPMNTPRP | -0.727 |
| RRIRVRPPRLPRPRPRPWKVPRP | -0.0954 |
| RRIRWRPPRLPRPRPRPIRCPRP | 0.0257 |
| RRIRIRPPRLPRPRPRPNFWPRP | -0.0359 |
| RRIRIRPPRLPRPRPRPHFNPRP | -0.966 |
| RRIRERPPRLPRPRPRPPLQPRP | -0.176 |
| RRIRTRPPRLPRPRPRPSWCPRP | -0.322 |
| RRIRTRPPRLPRPRPRPGHSPRP | 0.0834 |

| Sequence | shrunken log2 fold change |
| --- | --- |
| RRIRQRPPRLPRPRPRPPTWPRP | -0.0557 |
| RRIRARPPRLPRPRPRPEAGPRP | 1.5 |
| RRIRVRPPRLPRPRPRPECFPRP | 0.195 |
| RRIRLRPPRLPRPRPRPHGYPRP | -0.528 |
| RRIRKRPPRLPRPRPRPMEAPRP | 0.0719 |
| RRIRWRPPRLPRPRPRPNFWPRP | 0.224 |
| RRIRARPPRLPRPRPRPNMGPRP | 0.137 |
| RRIRIRPPRLPRPRPRPELRPRP | 0.0361 |
| RRIRARPPRLPRPRPRPARVPRP | 0.813 |
| RRIRLRPPRLPRPRPRPLWGPRP | 0.151 |
| RRIRKRPPRLPRPRPRPILVPRP | 0.0199 |
| RRIRVRPPRLPRPRPRPGVVPRP | 0.43 |
| RRIRWRPPRLPRPRPRPFAYPRP | -0.304 |
| RRIRCRPPRLPRPRPRPLWRPRP | 0.397 |
| RRIRNRPPRLPRPRPRPLTHPRP | -0.566 |
| RRIRLRPPRLPRPRPRPIKWPRP | -0.412 |
| RRIRARPPRLPRPRPRPGPIPRP | 0.341 |
| RRIRRRPPRLPRPRPRPRIIPRP | 0.0728 |
| RRIRCRPPRLPRPRPRPHHRPRP | -0.266 |
| RRIRARPPRLPRPRPRPYYWPRP | -0.77 |
| RRIRMRPPRLPRPRPRPEIQPRP | 0.0386 |
| RRIRKRPPRLPRPRPRPYPPPRP | -0.289 |
| RRIRRRPPRLPRPRPRPMSEPRP | 0.0166 |
| RRIRTRPPRLPRPRPRPEHRPRP | -0.0227 |
| RRIRKRPPRLPRPRPRPKCWPRP | 0.382 |
